Test results reported in article PMC8761697, “Dehydrogenase reductase 9 (SDR9C4) and related homologs recognize a broad spectrum of lipid mediator oxylipins as substrates” (The Journal of Biological Chemistry, 2021).

Key:
Test in all cases: HPLC of oxidised product, Sf9 microsomes
Format in all cases: biochemical, Homo sapiens
Conditions in all cases: apparent Km, NAD+-dependent oxidation, 90 mM potassium phosphate pH 7.3, 40 mM KCl, 37 °C
[1] = substrate: CCCCC/C=C\C=C\[C@@H](O)CCCCCCCC(=O)O
From the text: (§1) HPLC of oxidised product, Sf9 microsomes on human RDH16 (SDR9C8)

[2] = substrate: CCCCC/C=C\C[C@H](O)/C=C/C=C\C/C=C\CCCC(=O)O
From the text: as §1

[3] = substrate: CCCCC[C@H](O)/C=C/C=C\CCCCCCCC(=O)O
From the text: as §1

[4] = substrate: CCCCC[C@H](O)/C=C/C=C\C/C=C\C/C=C\CCCC(=O)O
From the text: as §1

[5] = substrate: CCCCC/C=C\C=C\[C@@H](O)CCCCCCCC(=O)O; remark: listed apart in the source
From the text: (§2) HPLC of oxidised product, Sf9 microsomes on human DHRS9 (SDR9C4)

[6] = substrate: CCCCC/C=C\C[C@@H](O)/C=C/C=C/C=C\[C@@H](O)CCCC(=O)O
From the text: as §2

[7] = substrate: CCCCC[C@H](O)/C=C/C=C\C=C\C=C\[C@@H](O)[C@@H](O)CCCC(=O)O
From the text: as §2

[8] = substrate: CCCCC/C=C\C[C@H](O)/C=C/C=C\C/C=C\CCCC(=O)O; remark: listed apart in the source
From the text: as §2

[9] = substrate: CCCCC[C@H](O)/C=C/C=C\CCCCCCCC(=O)O; remark: listed apart in the source
From the text: as §2

[10] = substrate: CCCCC[C@H](O)/C=C/C=C\C/C=C\C/C=C\CCCC(=O)O; remark: listed apart in the source
From the text: as §2

[11] = substrate: CC/C=C\C[C@H](O)/C=C/C=C\C=C\C=C\[C@@H](O)[C@@H](O)C/C=C\CCC(=O)O
From the text: as §2

[12] = substrate: CCCCC/C=C\C=C\[C@@H](O)CCCCCCCC(=O)O; remark: listed apart in the source
From the text: (§3) HPLC of oxidised product, Sf9 microsomes on human HSD17B6 (SDR9C6)

[13] = substrate: CCCCC/C=C\C[C@H](O)/C=C/C=C\C/C=C\CCCC(=O)O; remark: listed apart in the source
From the text: as §3

[14] = substrate: CCCCC[C@H](O)/C=C/C=C\CCCCCCCC(=O)O; remark: listed apart in the source
From the text: as §3

[15] = substrate: CCCCC[C@H](O)/C=C/C=C\C/C=C\C/C=C\CCCC(=O)O; remark: listed apart in the source
From the text: as §3

B1: human RDH16 (SDR9C8) (Homo sapiens) (protein)
chain: MWLYLAVFVGLYYLLHWYRERQVLSHLRDKYVFITGCDSGFGKLLARQLDARGLRVLAACLTEKGAEQLRGQTSDRLETVTLDVTKTESVAAAAQWVKECVRDKGLWGLVNNAGISLPTAPNELLTKQDFVTILDVNLLGVIDVTLSLLPLVRRARGRVVNVSSVMGRVSLFGGGYCISKYGVEAFSDSLRRELSYFGVKVAMIEPGYFKTAVTSKERFLKSFLEIWDRSSPEVKEAYGEKFVADYKKSAEQMEQKCTQDLSLVTNCMEHALIACHPRTRYSAGWDAKLLYLPMSYMPTFLVDAIMYWVSPSPAKAL
notes: recombinant, baculovirus-infected Sf9 cell microsomes
- Km [1]: 1.76 ± 0.59 µM
- Vmax [1]: 1.67e-05 µmol/min
- Km [2]: 2.01 ± 0.64 µM
- Vmax [2]: 2.15e-06 µmol/min
- Km [3]: 0.83 ± 0.36 µM
- Vmax [3]: 7.7e-06 µmol/min
- Km [4]: 1.39 ± 0.56 µM
- Vmax [4]: 2.04e-05 µmol/min

B2: human DHRS9 (SDR9C4) (Homo sapiens) (protein)
chain: RKGKLKIEDITDKYIFITGCDSGFGNLAARTFDKKGFHVIAACLTESGSTALKAETSERLRTVLLDVTDPENVKRTAQWVKNQVGEKGLWGLINNAGVPGVLAPTDWLTLEDYREPIEVNLFGLISVTLNMLPLVKKAQGRVINVSSVGGRLAIVGGGYTPSKYAVEGFNDSLRRDMKAFGVHVSCIEPGLFKTNLADPVKVIEKKLAIWEQLSPDIKQQYGEGYIEKSLDKLKGNKSYVNMDLSPVVECMDHALTSLFPKTHYAAGKDAKIFWIPLSHMPAALQDFLLLKQKAELANPKAV
notes: as for B1
- Km [5]: 0.57 ± 0.25 µM
- Vmax [5]: 2.4e-05 µmol/min
- Km [6]: 0.76 ± 0.44 µM
- Vmax [6]: 0.00017 µmol/min
- Km [7]: 4.6 ± 2.7 µM
- Vmax [7]: 0.00023 µmol/min
- Km [8]: 0.43 ± 0.16 µM
- Vmax [8]: 0.00022 µmol/min
- Km [9]: 0.46 ± 0.19 µM
- Vmax [9]: 0.00011 µmol/min
- Km [10]: 0.36 ± 0.18 µM
- Vmax [10]: 0.00014 µmol/min
- Km [11]: 1.6 ± 0.5 µM
- Vmax [11]: 8.5e-05 µmol/min

B3: human HSD17B6 (SDR9C6) (Homo sapiens) (protein)
chain: YRERQVVSHLQDKYVFITGCDSGFGNLLARQLDARGLRVLAACLTEKGAEQLRGQTSDRLETVTLDVTKMESIAAATQWVKEHVGDRGLWGLVNNAGILTPITLCEWLNTEDSMNMLKVNLIGVIQVTLSMLPLVRRARGRIVNVSSILGRVAFFVGGYCVSKYGVEAFSDILRREIQHFGVKISIVEPGYFRTGMTNMTQSLERMKQSWKEAPKHIKETYGQQYFDALYNIMKEGLLNCSTNLNLVTDCMEHALTSVHPRTRYSAGWDAKFFFIPLSYLPTSLADYILTRSWPKPAQAV
notes: as for B1
- Km [12]: 0.64 ± 0.28 µM
- Vmax [12]: 4e-07 µmol/min
- Km [13]: 0.87 ± 0.35 µM
- Vmax [13]: 7.96e-06 µmol/min
- Km [14]: 0.33 ± 0.24 µM
- Vmax [14]: 9e-07 µmol/min
- Km [15]: 1.78 ± 0.42 µM
- Vmax [15]: 2.88e-06 µmol/min
